Source: patent publication US10400249B2, “HPPD variants and methods of use” (priority 2014, dated 2019)

Assays:
[1] = tested on: Pseudomonas fluorescens HPPD protein; assay: OD assay: HPPD activity and pI50 from HPP remaining after derivatisation with DNP; type: biochemical; conditions: for Activity DeltaE/24 min μg Protein: HPPD enzyme activity of the clone; for tolerance (pI50) DKN: inhibitor diketonitrile (DKN), negative log of molar concentration; for tolerance (pI50) MST: inhibitor mesotrione (MST); for tolerance (pI50) TBT: inhibitor tembotrione (TBT); for tolerance (pI50) Cmpd. 2: inhibitor Cmpd. 2
Method: (§1) HPPD proteins were produced and purified as described in WO2011/076882. The activity of HPPD proteins in absence or presence of HPPD inhibitors was determined using either the so called OD assay or the HGD assay.
(§2) • a) The OD assay: The HPPD activity was determined colourimetrically by measuring the amount of HPP remaining in the assay mixture at the end of the incubation period after derivatisation of HPP with 2,4-dinitrophenylhydrazine (DNP) to form an amber-brown colored 2,4-dinitrophenylhydrazone under alkaline conditions. The assay was carried out at room temperature in Greiner F-bottom 96 well microplates. The assay mixture contained 50 mM Tris-HCl pH 7.8, 0.5 mM HPP, 10 mM ascorbate, 650 units of catalase and appropriate amounts of purified HPPD enzyme in a total assay volume of 100 μl. The reaction was started by the addition of enzyme. After an incubation time of 24 minutes, the reaction was stopped by the addition of 50 μl of a solution of 0.04% DNP dissolved in 3.8 N HCl. After a further 15-minute incubation period 100 μl of a 5 N KOH solution was added to the reaction mixture and the amount of unconsumed HPP was measured photometrically at 405 nm. Enzyme activity was calculated as the difference in E405 between assays lacking enzyme (negative control) and the enzyme containing assays (ΔE405=E405(negative control)−E405). Enzyme activity (nmol substrate consumed per min) was calculated from a calibration curve generated from HPP. pI50-values (the negative log value of the concentration of inhibitor necessary to inhibit 50% of the enzyme activity in molar concentration were determined from dose-response plots of HPPD activity versus inhibitor concentration tested (5.0×10^−6, 1.0×10^−5, 2.5×10^−5, 4.0×10^−5, 7.0×10^−5, 1.0×10^−4, 2.0×10^−4 and 5.0×10^−4M) using the 4 Parameter Logistic Model or Sigmoidal Dose-Response Model of the ID Business Solutions Ltd. XLfit software suite. The result “>5.6” means that the inhibition at the lowest inhibitor concentration tested was higher than 85% and the pI50-value could therefore not be precisely calculated within in the range of concentration of inhibitor tested. The result “<2.5” means that the inhibition at the highest inhibitor concentration tested was lower than 25% and the pI50-value could therefore not be precisely calculated within in the range of concentration of inhibitor tested. “n.d.” means not determined. • b) The HGD assay: With the HGD assay HPPD activity was measured at room temperature by adding appropriate amounts of HPPD to a solution of 200 mM Tris-HCl pH 7.6, 10 mM ascorbate, 20 μM FeSO4, 650 units of catalase, 8 μg HGA dioxygenase (HGA: homogentisate) and 600 μM HPP in a total volume of 1 ml. Initial reaction rates in the absence or presence of inhibitors were determined from the increase in absorbance at 318 nm due to the formation of maleylacetoacetate (ε318=11,900 M−1 cm-1). pI50-values (the negative log value of the concentration of inhibitor necessary to inhibit 50% of the enzyme activity in molar concentration were determined from dose-response plots of HPPD activity versus inhibitor concentration tested using the 4 Parameter Logistic Model or Sigmoidal Dose-Response Model of the ID Business Solutions Ltd. XLfit software suite. Due to the UV absorption of the HPPD inhibitors tested, inhibitor concentrations >100 μM could not be tested. The result “<4” means that the inhibition at 100 μM inhibitor concentration was lower than 25% and the pI50-value could therefore not be precisely calculated within in the range of concentration of inhibitor tested. “n.d.” means not determined. The HGD assay allowed to continuously follow HPPD-catalyzed HGA formation over time was therefore used to determine the inhibition type of the HPPD inhibitors tested. […] When in the presence of an inhibitor the HPPD activity was inhibited but the inhibition was found not to […] in a time-dependent manner, the inhibitor was called reversible (abbreviation “rev”). […]

[2] = tested on: Pseudomonas fluorescens HPPD protein; assay: HGD assay: HPPD activity coupled to HGA dioxygenase, pI50 and type of inhibition (time-course); type: biochemical; conditions: for tolerance (pI50) Cmpd. 2: inhibitor Cmpd. 2
Method: as §1, §2

| Molecule | Activity DeltaE/24 min μg Protein [1] [DeltaE/24 min μg Protein] | tolerance (pI50) DKN [1] | tolerance (pI50) MST [1] | tolerance (pI50) TBT [1] | mechanism of inhibition by Cmpd. 2, time-course of inhibition [2] | tolerance (pI50) Cmpd. 2 ([2]; HGD assay) | tolerance (pI50) Cmpd. 2 [1] | tolerance (pI50) Cmpd. 1 ([2]; inhibitor Cmpd. 1, HGD assay) | tolerance (pI50) Cmpd. 4 ([2]; inhibitor Cmpd. 4, HGD assay) |
| --- | --- | --- | --- | --- | --- | --- | --- | --- | --- |
| K131: PfHPPD variant E335P, G336Y, K339A, A340Q (protein, HPPD variant - K131, PfHPPD variant E335P, G336Y, K339A, A340Q) MADLYENPMGLMGFEFIEFASPTPGTLEPIFEIMGFTKVATHRSKNVHLYRQGEINLILNNEPNSIASYFAAEHGPSVCGMAFRVKDSQKAYNRALELGAQPIHIDTGPMELNLPAIKGIGGAPLYLIDRFGEGSSIYDIDFVYLEGVERNPVGAGLKVIDHLTHNVYRGRMVYWANFYEKLFNFREARYFDIKGEYTGLTSKAMSAPDGMIRIPLNEESSKGAGQIEEFLMQFNGEGIQHVAFLTDDLVKTWDALKKIGMRFMTAPPDTYYEMLEGRLPDHGEPVDQLQARGILLDGSSVEGDKRLLLQIFSETLMGPVFFEFIQRKGDDGFGPYNFAQLFESIERDQVRRGVLTAD | 0.50 | 3.3 | 3.7 | 4.8 | fully reversible inhibitor | 6.2 | – | – | – |
| K137: PfHPPD variant P215L, E335P, G336Y (protein, HPPD variant - K137, PfHPPD variant P215L, E335P, G336Y) MADLYENPMGLMGFEFIEFASPTPGTLEPIFEIMGFTKVATHRSKNVHLYRQGEINLILNNEPNSIASYFAAEHGPSVCGMAFRVKDSQKAYNRALELGAQPIHIDTGPMELNLPAIKGIGGAPLYLIDRFGEGSSIYDIDFVYLEGVERNPVGAGLKVIDHLTHNVYRGRMVYWANFYEKLFNFREARYFDIKGEYTGLTSKAMSAPDGMIRILLNEESSKGAGQIEEFLMQFNGEGIQHVAFLTDDLVKTWDALKKIGMRFMTAPPDTYYEMLEGRLPDHGEPVDQLQARGILLDGSSVEGDKRLLLQIFSETLMGPVFFEFIQRKGDDGFGPYNFKALFESIERDQVRRGVLTAD | 0.12 | 2.8 | 3.4 | 4.7 | fully reversible inhibitor | 5.5 | – | – | – |
| K255: PfHPPD variant P215A, E335P, G336F, A340E (protein, HPPD variant - K255, PfHPPD variant P215A, E335P, G336F, A340E) MADLYENPMGLMGFEFIEFASPTPGTLEPIFEIMGFTKVATHRSKNVHLYRQGEINLILNNEPNSIASYFAAEHGPSVCGMAFRVKDSQKAYNRALELGAQPIHIDTGPMELNLPAIKGIGGAPLYLIDRFGEGSSIYDIDFVYLEGVERNPVGAGLKVIDHLTHNVYRGRMVYWANFYEKLFNFREARYFDIKGEYTGLTSKAMSAPDGMIRIALNEESSKGAGQIEEFLMQFNGEGIQHVAFLTDDLVKTWDALKKIGMRFMTAPPDTYYEMLEGRLPDHGEPVDQLQARGILLDGSSVEGDKRLLLQIFSETLMGPVFFEFIQRKGDDGFGPFNFKELFESIERDQVRRGVLTAD | 0.09 | 3.0 | 3.7 | 4.5 | fully reversible inhibitor | – | 5.0 | – | – |
| K258: PfHPPD variant P215N, E335P, G336F, A340E (protein, HPPD variant - K258, PfHPPD variant P215N, E335P, G336F, A340E) MADLYENPMGLMGFEFIEFASPTPGTLEPIFEIMGFTKVATHRSKNVHLYRQGEINLILNNEPNSIASYFAAEHGPSVCGMAFRVKDSQKAYNRALELGAQPIHIDTGPMELNLPAIKGIGGAPLYLIDRFGEGSSIYDIDFVYLEGVERNPVGAGLKVIDHLTHNVYRGRMVYWANFYEKLFNFREARYFDIKGEYTGLTSKAMSAPDGMIRINLNEESSKGAGQIEEFLMQFNGEGIQHVAFLTDDLVKTWDALKKIGMRFMTAPPDTYYEMLEGRLPDHGEPVDQLQARGILLDGSSVEGDKRLLLQIFSETLMGPVFFEFIQRKGDDGFGPFNFKELFESIERDQVRRGVLTAD | 0.15 | <2.5 | 3.4 | 4.4 | fully reversible inhibitor | – | 5.4 | – | – |
| K203: PfHPPD variant P215L, E335P, G336Y, A340E (protein, HPPD variant - K203, PfHPPD variant P215L, E335P, G336Y, A340E) MADLYENPMGLMGFEFIEFASPTPGTLEPIFEIMGFTKVATHRSKNVHLYRQGEINLILNNEPNSIASYFAAEHGPSVCGMAFRVKDSQKAYNRALELGAQPIHIDTGPMELNLPAIKGIGGAPLYLIDRFGEGSSIYDIDFVYLEGVERNPVGAGLKVIDHLTHNVYRGRMVYWANFYEKLFNFREARYFDIKGEYTGLTSKAMSAPDGMIRILLNEESSKGAGQIEEFLMQFNGEGIQHVAFLTDDLVKTWDALKKIGMRFMTAPPDTYYEMLEGRLPDHGEPVDQLQARGILLDGSSVEGDKRLLLQIFSETLMGPVFFEFIQRKGDDGFGPYNFKELFESIERDQVRRGVLTAD | 0.08 | <2.5 | 3.0 | 3.9 | fully reversible inhibitor | 5.3 | – | – | – |
| K132: PfHPPD variant E335P, G336Y, A340E (protein, HPPD variant - K132, PfHPPD variant E335P, G336Y, A340E) MADLYENPMGLMGFEFIEFASPTPGTLEPIFEIMGFTKVATHRSKNVHLYRQGEINLILNNEPNSIASYFAAEHGPSVCGMAFRVKDSQKAYNRALELGAQPIHIDTGPMELNLPAIKGIGGAPLYLIDRFGEGSSIYDIDFVYLEGVERNPVGAGLKVIDHLTHNVYRGRMVYWANFYEKLFNFREARYFDIKGEYTGLTSKAMSAPDGMIRIPLNEESSKGAGQIEEFLMQFNGEGIQHVAFLTDDLVKTWDALKKIGMRFMTAPPDTYYEMLEGRLPDHGEPVDQLQARGILLDGSSVEGDKRLLLQIFSETLMGPVFFEFIQRKGDDGFGPYNFKELFESIERDQVRRGVLTAD | 0.50 | 3.1 | 3.7 | 4.8 | fully reversible inhibitor | 5.9 | – | 5.5 | 6.9 |
